Assay results reported in publication doi:10.1101/298208 (bioRxiv, 2018).

Molecular target: the molecule itself
Experiment: native gel or EMSA

B1: scavenger receptor class BI (SR-BI) (receptor)
chain: MGGSSRARWVALGLGALGLLFAALGVVMILMVPSLIKQQVLKNVRIDPSSLSFGMWKEIPVPFYLSVYFFEVVNPNEVLNGQKPVVRERGPYVYREFRQKVNITFNDNDTVSFVENRSLHFQPDKSHGSESDYIVLPNILVLGGSILMESKPVSLKLMMTLALVTMGQRAFMNRTVGEILWGYDDPFVHFLNTYLPDMLPIKGKFGLFVGMNNSNSGVFTVFTGVQNFSRIHLVDKWNGLSKIDYWHSEQCNMINGTSGQMWAPFMTPESSLEFFSPEACRSMKLTYNESRVFEGIPTYRFTAPDTLFANGSVYPPNEGFCPCRESGIQNVSTCRFGAPLFLSHPHFYNADPVLSEAVLGLNPNPKEHSLFLDIHPVTGIPMNCSVKMQLSLYIKSVKGIGQTGKIEPVVLPLLWFEQSGAMGGKPLSTFYTQLVLMPQVLHYAQYVLLGLGGLLLLVPIICQLRSQEKCFLFWSGSKKGSQDKEAIQAYSESLMSPAAKGTVLQEAKL
B1 was tested, and the “stoichiometry N” value was 2.
